Measured values as given in PMC5357909, “Structural and functional studies of a noncanonical Dicer from Entamoeba histolytica” (Scientific Reports, 2017).

Key:
[1] = target: T1, EA256 (EhRNaseIII-AadsRBD chimera) (Entamoeba histolytica / Aquifex aeolicus, UniProt C4LU64 2-256+O67082:145-221, internal_change); assay: EMSA; 5 mM Mg2+; more than 70% bound at 1e-4 M; EMSA (1x): 30 mM Tris-HCl pH 7.5, 30 mM NaCl, 5 mM MgCl2, 1 mM DTT, 0.1 mM EDTA, 5% glycerol; room temperature 10 min then ice 20 min; 6% native PAGE, 0.5x TBE; conditions: protein: recombinant; tags: His-Sumo removed by Ulp1; chain copies: 2; blunt, 25 bp
T1 sequence: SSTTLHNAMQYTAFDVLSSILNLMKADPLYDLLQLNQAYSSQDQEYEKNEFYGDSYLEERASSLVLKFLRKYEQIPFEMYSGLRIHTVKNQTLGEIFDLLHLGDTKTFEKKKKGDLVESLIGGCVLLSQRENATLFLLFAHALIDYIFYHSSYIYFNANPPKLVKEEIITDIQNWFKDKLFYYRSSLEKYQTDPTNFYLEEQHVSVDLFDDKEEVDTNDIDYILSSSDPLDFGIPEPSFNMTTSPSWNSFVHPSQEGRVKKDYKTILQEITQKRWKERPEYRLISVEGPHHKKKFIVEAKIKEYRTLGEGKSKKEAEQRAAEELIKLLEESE

[2] = target: T1, EA256 (EhRNaseIII-AadsRBD chimera); assay: EMSA; 5 mM Mg2+; completely bound at 1e-4 M; EMSA (1x): 30 mM Tris-HCl pH 7.5, 30 mM NaCl, 5 mM MgCl2, 1 mM DTT, 0.1 mM EDTA, 5% glycerol; room temperature 10 min then ice 20 min; 6% native PAGE, 0.5x TBE; conditions: protein: recombinant, tags: His-Sumo removed by Ulp1, chain copies: 2, blunt

B1: RNA25 (dsRNA)
RNA 1: GGGAGAAACGCGGCCUCUUUCUCCC
RNA 2: GGGAGAAAGAGGCCGCGUUUCUCCC
apparent K (half saturation) [1]: < 100 µM

B2: RNA70 (dsRNA)
RNA 1: GGGAGAAACGCGGCCUCUUCUUAUUUAUGGCGACAUGUUGUGCCACAUAUUGAGCCAGUAGCGCUCUCCC
RNA 2: GGGAGAGCGCUACUGGCUCAAUAUGUGGCACAACAUGUCGCCAUAAAUAAGAAGAGGCCGCGUUUCUCCC
apparent K (half saturation) ([2]; 70 bp): < 100 µM

B3: RNA50 (dsRNA)
RNA 1: GGGAGAAACGCGGCCUCUUCUUAUUUAUGGCGACAUGUUGUGCCUCUCCC
RNA 2: GGGAGAGGCACAACAUGUCGCCAUAAAUAAGAAGAGGCCGCGUUUCUCCC
apparent K (half saturation) ([2]; 50 bp): < 100 µM

B4: RNA100 (dsRNA)
RNA 1: GGGAGAAACGCGGCCUCUUCUUAUUUAUGGCGACAUGUUGUGCCACAUAUUGAGCCAGUAGCGCGGUGUAUUAUACCAGACCUUAUUGGUAUGGUCUCCC
RNA 2: GGGAGACCAUACCAAUAAGGUCUGGUAUAAUACACCGCGCUACUGGCUCAAUAUGUGGCACAACAUGUCGCCAUAAAUAAGAAGAGGCCGCGUUUCUCCC
apparent K (half saturation) ([2]; 100 bp): < 100 µM
